The values that follow come from patent US20210373004A1 (BIOASTER, published 2021).

Test [1] addresses T1, Flag-mCherry-ColKhan-Cys-6His (Photorhabdus khanii). Briefly: EIA 8 plex n° 1: colicin coated at 100 nM, Im-RLuc8 alone at 100 nM, luciferase signal (FIG. 3, light grey bars).
The target in test [2] is Flag-mCherry-ColErw-Cys-6His (Pectobacterium carotovorum). Briefly: EIA 8 plex n° 1: colicin coated at 100 nM, Im-RLuc8 alone at 100 nM, luciferase signal.
Test [3] addresses T2, Flag-EmGFP-ColE7-6His (Escherichia coli).
T2 construct: also called Colicin E7
Briefly: EIA 8 plex n° 1: colicin coated at 100 nM, Im-RLuc8 at 100 nM, luminescence; light bar alone, dark bar with the 7 other unfused Im proteins.

Test [4] has as its target T3, Flag-mCherry-ColE8-6His (Escherichia coli).
T3 construct: also called Colicin E8
The description is as above.

Test [5] has as its target T4, Flag-mCherry-ColSyr-Cys-6His (Pseudomonas syringae B728A). The test is described as above.
For another test, the target named is T5, Flag-EmGFP-ColE2-6His (Escherichia coli).
T5 construct: Coated on the plate or sprayed on the membrane; also called Colicin E2
The description is as above.

In test [6] the target is T6, Flag-mCherry-ColAP41-Cys-6His (Pseudomonas aeruginosa AP41). Described as above.
In test [7] the target is T7, Flag-mCherry-ColE9-6His (Escherichia coli).
T7 construct: also called Colicin E9
The description is as above.

Test [8] concerns the target T1, Flag-mCherry-ColKhan-Cys-6His. Briefly: EIA 8 plex n° 2: colicin coated at 100 nM, Im-RLuc8 alone at 100 nM, luciferase signal (FIG. 4, light grey bars).
The target of test [9] is T8, Flag-mCherry-ColLeaf-Cys-6His (Pseudomonas sp Leaf83). Briefly: EIA 8 plex n° 2: colicin coated at 100 nM, Im-RLuc8 at 100 nM, luminescence; light bar alone, dark bar with the 7 other unfused Im proteins.
Test [10] concerns the target T7, Flag-mCherry-ColE9-6His. Briefly: EIA 8 plex n° 1: colicin coated at 100 nM, Im-RLuc8 alone at 100 nM, luciferase signal (FIG. 3, light grey bars).
Test [11] concerns the target T2, Flag-EmGFP-ColE7-6His. Briefly: EIA 8 plex n° 1: colicin coated at 100 nM, Im-RLuc8 alone at 100 nM, luciferase signal.
The target of test [12] is T4, Flag-mCherry-ColSyr-Cys-6His. Described as above.
Test [13] deals with T6, Flag-mCherry-ColAP41-Cys-6His. Described as above.
Test [14] has as its target T3, Flag-mCherry-ColE8-6His. Briefly: EIA 8 plex n° 2: colicin coated at 100 nM, Im-RLuc8 alone at 100 nM, luciferase signal.
The target of test [15] is T8, Flag-mCherry-ColLeaf-Cys-6His. The test is described as above.
The target of test [16] is T2, Flag-EmGFP-ColE7-6His. Briefly: kinetics, literature value (Li W. et al., 2004) printed above the bar pair; unit from the legend paragraph 10.
Test [17] deals with T3, Flag-mCherry-ColE8-6His. The test is described as above.
Test [18] has as its target T7, Flag-mCherry-ColE9-6His. The test is described as above.
In test [19] the target is T7, Flag-mCherry-ColE9-6His. Briefly: EIA 8 plex n° 2: colicin coated at 100 nM, Im-RLuc8 alone at 100 nM, luciferase signal (FIG. 4, light grey bars).
In test [20] the target is T7, Flag-mCherry-ColE9-6His. Briefly: EIA 4 plex: colicin coated at 100 nM, Im-RLuc8 alone at 100 nM, luciferase signal (FIG. 1, light grey bars).

B1: Avitag-RLuc8-ImKhan-6His (other)
chain: MGLNDIFEAQKIEWHEGGSGGSGGSASKVYDPEQRKRMITGPQWWARCKQMNVLDSFINYYDSEKHAENAVIFLHGNATSSYLWRHVVPHIEPVARCIIPDLIGMGKSGKSGNGSYRLLDHYKYLTAWFELLNLPKKIIFVGHDWGAALAFHYAYEHQDRIKAIVHMESVVDVIESWDEWPDIEEDIALIKSEEGEKMVLENNFFVETVLPSKIMRKLEPEEFAAYLEPFKEKGEVRRPTLSWPREIPLVKGGKPDVVQIVRNYNAYLRASDDLPKLFIESDPGFFSNAIVEGAKKFPNTEFVKVKGLHFLQEDAPDEMGKYIKSFVERVLKNEQGGGSTAGGGGSELKNKLEDYTEAEFLSLLNKIWAVDVSEEEHDNLIDHFEKLSEHPNGNGLIFYPENGVEDSPEGVLKVIKEWRAKNGKPGFKKLEGGGSHHHHHH
notes: Immunity protein fused to the luciferase RLuc8 as reporter; added in solution; also called ImKhan-Rluc8; ImKahn
Turning to B1, the RLU in [1] was over 2e+06 RLU; in test [2], over 100000 RLU; in [8] it was over 2.4e+06 RLU. The binding result (with Flag-EmGFP-ColE7-6His [3]; with Flag-mCherry-ColE8-6His [4]; in test [5]; in the test with Flag-EmGFP-ColE2-6His; in test [6]; in the test with Flag-mCherry-ColE9-6His [7]) was “no binding (tested: 100 nM)” each time. For the same molecule, the binding result in test [9] is reported as “no binding (tested: 100 nM)”.

B2: Myc-RLuc8-Im9-6His (other)
chain: MGGEQKLISEEDLGGSASKVYDPEQRKRMITGPQWWARCKQMNVLDSFINYYDSEKHAENAVIFLHGNATSSYLWRHVVPHIEPVARCIIPDLIGMGKSGKSGNGSYRLLDHYKYLTAWFELLNLPKKIIFVGHDWGAALAFHYAYEHQDRIKAIVHMESVVDVIESWDEWPDIEEDIALIKSEEGEKMVLENNFFVETVLPSKIMRKLEPEEFAAYLEPFKEKGEVRRPTLSWPREIPLVKGGKPDVVQIVRNYNAYLRASDDLPKLFIESDPGFFSNAIVEGAKKFPNTEFVKVKGLHFLQEDAPDEMGKYIKSFVERVLKNEQKLELKHSISDYTEAEFLQLVTTICNADTSSEEELVKLVTHFEEMTEHPSGSDLIYYPKEGDDDSPSGIVNTVKQWRAANGKLEGGGSHHHHHH
notes: Immunity protein fused to the luciferase RLuc8 as reporter; added in solution; also called Im9-RLuc8; Im9-Rluc8
Consider B2, for which the RLU with Flag-mCherry-ColE9-6His [10] was over 2e+06 RLU; with Flag-EmGFP-ColE7-6His [11] it was over 100000 RLU; in [12], over 100000 RLU; in test [13], over 100000 RLU; with Flag-mCherry-ColE8-6His [14], over 100000 RLU; in test [15], over 100000 RLU. The RLU with Flag-mCherry-ColE9-6His [19] is over 2.4e+06 RLU; in the test with Flag-mCherry-ColE9-6His [20], over 400000 RLU. Besides, the binding result in test [5], in test [6] and in [9] was “no binding (tested: 100 nM)” throughout. The Kd in the test with Flag-EmGFP-ColE7-6His [16] came to 38 nM; with Flag-mCherry-ColE8-6His [17], 64 nM; in the test with Flag-mCherry-ColE9-6His [18], 0.024 pM.
